The values that follow come from article PMC7352312.

For orientation: stoichiometry N means a count of units in the complex or per binding partner.

The target of experiment [1] is AcSpN A71R mutant (Nephila antipodiana) (Nephila antipodiana). The experiment can be described thus: AUC; sedimentation velocity, 1.5 mg/mL protein, 20 mM phosphate, 300 mM NaCl, pH 7.0-8.0 (mutants and MaSpN at pH 7.0), 24 °C; self-association.
Experiment [2] addresses AcSpN K103E mutant (Nephila antipodiana) (Nephila antipodiana). The experiment in a line: AUC; sedimentation velocity, 1.5 mg/mL protein, 20 mM phosphate, 0 mM NaCl, pH 7.0-8.0 (mutants and MaSpN at pH 7.0), 24 °C; self-association.
Experiment [3] concerns the target AcSpN K122E mutant (Nephila antipodiana) (Nephila antipodiana). The experiment can be described thus: AUC; sedimentation velocity, 1.5 mg/mL protein, 20 mM phosphate, 150 mM NaCl, pH ≥ 7.0 (mutants and MaSpN at pH 7.0), 24 °C; self-association.
For experiment [4], the target named is AcSpN R107E mutant (Nephila antipodiana) (Nephila antipodiana). The experiment in a line: AUC; sedimentation velocity, 1.5 mg/mL protein, 20 mM phosphate, 0 mM NaCl, pH 7.0-8.0 (mutants and MaSpN at pH 7.0), 24 °C; self-association.
Experiment [5] addresses N-terminal domain of aciniform silk protein (AcSpN) from Nephila antipodiana, construct S15-E153 (renumbered S4-E142) (Nephila antipodiana). The experiment can be described thus: AUC; sedimentation velocity, 1.5 mg/mL protein, 20 mM phosphate, 300 mM NaCl, pH 5.85 and 5.50, 24 °C; self-association.
For experiment [6] the target is unchanged. The experiment can be described thus: AUC; sedimentation velocity, 1.5 mg/mL protein, 20 mM phosphate, 150 mM NaCl, pH ≥ 7.0 (mutants and MaSpN at pH 7.0), 24 °C; self-association.
Experiment [7] has the same target. The experiment can be described thus: AUC; sedimentation velocity, 1.5 mg/mL protein, 20 mM phosphate, 150 mM NaCl, pH < 7.0, 24 °C; self-association.
Experiment [8] has as its target N-terminal domain of major ampullate silk protein (MaSpN) from Nephila antipodiana, construct T1-E137 (Nephila antipodiana). The experiment in a line: AUC; sedimentation velocity, 1.5 mg/mL protein, 20 mM phosphate, 0 mM NaCl, pH 7.0-8.0 (mutants and MaSpN at pH 7.0), 24 °C; self-association.
The target is the same in experiment [9]. The experiment can be described thus: SEC; Superdex 200 Increase 10/300 GL, 20 mM sodium phosphate pH 7.0, 50 mM NaCl, ~600 µM protein injected; self-association. Background: SEC sorts molecules by how far they enter the pores of the column.

For “AcSpN A71R mutant (Nephila antipodiana) (domain or fragment)”, the percent in a dimeric form in experiment [1] was 10%.
Regarding “AcSpN K103E mutant (Nephila antipodiana) (domain or fragment)”, the stoichiometry N in experiment [2] was 2.
For “AcSpN K122E mutant (Nephila antipodiana) (domain or fragment)”, the stoichiometry N in experiment [3] came to 2.
For the substance “AcSpN R107E mutant (Nephila antipodiana) (domain or fragment)”, the stoichiometry N in experiment [4] was found to be 2.
With “N-terminal domain of aciniform silk protein (AcSpN) from Nephila antipodiana, construct S15-E153 (renumbered S4-E142) (domain or fragment)”, the stoichiometry N in experiment [5], in experiment [6] and in [7] was 2 each time.
For “N-terminal domain of major ampullate silk protein (MaSpN) from Nephila antipodiana, construct T1-E137 (domain or fragment)”, the stoichiometry N in [8] and in experiment [9] was 2 in each case.
